Experimental data reported in the supplement of paper PMC10567573.

B1: CPOX (parent)
chain: HAPTIHFNYRYFEVEEADGNKQWW

Variants of: B1
Assay: protein stability index of a GFP-peptide fusion (GPS, HEK-293T) (PSI 1-6); higher = more stable
Conditions: c terminus: a fixed tail appended
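Note: lentivirally expressed fusions sorted by FACS into six bins by GFP to DsRed ratio, PSI derived from sequencing read proportions per bin multiplied by bin number.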

Protein stability index: each site, then its substitutions
N20: C 1.87, F 1.07, A 1.76, E 2.75, M 1.32, R 2.46, V 2.27, Y 1.66, W 1.88, G 2.38, H 2.38, I 2.34, T 2.85, Q 2.95, P 1.98, K 3.29, D 2.12, S 2.08, L 2.12
K21: V 2.1, M 1.54, E 2.53, F 1.6, S 1.99, I 2.25, N 2.22, W 1.89, P 2.25, T 1.53, G 2.44, C 2.45, L 1.74, A 2.44, R 2.43, Q 2.67, H 2.6, D 2.52, Y 1.95
T4: H 2.62, Q 2.66, W 2.15, M 1.97, V 2.45, S 2.8, L 2.31, G 2.57, F 2.12, K 2.26, R 1.8, N 2.63, Y 1.39, I 2.21, P 2.7
G19: W 1.79, A 2.33, I 2.07, P 2.04, L 1.87, Q 2.11, V 2.11, F 2.46, T 2.26, C 1.97, H 1.8, R 2.25, K 2.17, S 2.19, N 2.22, Y 3.23, M 2.06, D 3.04, E 2.48
A17: I 1.86, N 3.19, E 3.01, M 2.27, T 2.35, Y 1.77, S 2.23, H 1.89, K 2.9, C 2.08, L 1.96, G 2.57, V 1.9, Q 2.31, P 2.05, D 2.6, F 1.97, R 2.02
I5: E 3.55, R 2.64, W 2.47, M 3.15, H 2.82, T 2.78, F 2.44, D 3.41, K 2.29, S 2.65, N 2.9, P 2.78, G 2.25, L 2.14, V 2.43, C 2.4, Q 2.7, A 2.69, Y 1.97
F12: L 2.64, C 2.02, R 2.96, A 2.49, K 3.04, T 3.08, Q 2.63, N 3.05, G 3.51, P 3.12, Y 2.84, S 2.87, E 2.99, I 2.33, M 2.52, D 3.51, W 1.99, H 3.01
F7: D 2.89, L 2.86, K 3.03, S 3.02, I 3.05, P 2.8, A 3.4, M 2.26, R 2.83, H 3.35, E 3.06, V 2.58, G 3.52, C 2.35, W 2.96, T 3.15, Q 3.21, Y 2.48, N 2.71
E15: R 1.41, P 2.13, T 1.81, Y 1.9, V 1.79, I 2.7, Q 2.2, F 2.14, H 1.5, A 1.93, M 2.35, C 2.15, D 2.58, K 2.56, G 2.04, L 2.49, W 2.4, S 2.49, N 1.84
E13: K 1.8, Q 2.17, P 1.86, W 2.31, R 1.56, D 2.36, A 1.97, F 1.63, S 1.45, V 2.52, G 2.06, C 2.07, I 2.04, N 2.15, T 1.67, H 2.09, L 1.41, M 2.22, Y 1.7
Y11: K 2.84, L 2.39, F 2.26, T 3.23, S 2.92, E 3.35, I 2.16, M 2.42, W 2.79, C 1.99, R 2.36, D 3.12, P 2.98, V 2.12, G 2.62, N 2.98, A 3.23, H 3.13
D18: F 3.24, P 1.71, Q 3.07, K 2.16, M 1.7, T 1.89, N 2.32, Y 1.07, H 2.86, C 1.61, L 1.3, V 1.68, S 2, G 2.45, I 1.5, A 2.6, R 2.18, E 2.63
N8: P 2.69, K 1.67, D 2.75, M 2.53, R 2.83, T 1.87, S 3.03, A 2.22, G 2.36, F 1.79, Q 2.48, V 1.57, Y 2.02, W 1.52, E 2.1, I 1.26
H6: W 1.59, G 2.77, I 2.34, Q 2.52, E 2.66, R 2.04, T 2.42, L 1.82, P 1.89, Y 2.68, M 1.94, D 2.92, A 2.19, N 2.5, K 2.36, C 1.9, V 1.61, S 2.31, F 1.52
Q22: H 2.03, D 3.12, A 1.98, E 3.35, F 1.67, C 1.96, G 2.46
R10: I 2.87, Y 2.27, Q 2.81, M 2.37, T 2.55, F 1.77, C 1.5, H 2.44, P 2.38, A 2.56, W 1.99, V 2.48, S 2.07, E 2.7, L 2.25, D 3.03, N 2.12, G 2.42, K 2.47
V14: I 2.44, W 2.35, A 2.52, F 2.11, M 2.06, S 2.44, Q 2.85, L 2.37, G 3.15, P 2.29, Y 2.23, R 2.29, C 1.82, K 2.85, E 3.62, D 3.06, N 2.42, H 2.4, T 2.43
E16: G 2.21, Q 2.39, H 1.82, N 1.83, I 2.29, Y 1.37, M 2.81, K 2.18, P 1.83, R 1.91, C 1.67, L 1.44, F 1.44, T 2.53, A 1.67, S 2.24, D 2.13
Y9: C 1.29, N 3.16, M 2.6, L 3.03, T 2.79, V 2.25, P 3.1, D 3.46, W 3.32, Q 2.82, E 3.5, A 2.33, H 2.9, K 3.37, F 2.05, I 2.22, R 3.23
